Source: US20230193513A1 (published 2023)

Biological target: T1, flag-GLP1R-GFP expressed on CHO cells (UniProt P43220 24-463)
T1 chain: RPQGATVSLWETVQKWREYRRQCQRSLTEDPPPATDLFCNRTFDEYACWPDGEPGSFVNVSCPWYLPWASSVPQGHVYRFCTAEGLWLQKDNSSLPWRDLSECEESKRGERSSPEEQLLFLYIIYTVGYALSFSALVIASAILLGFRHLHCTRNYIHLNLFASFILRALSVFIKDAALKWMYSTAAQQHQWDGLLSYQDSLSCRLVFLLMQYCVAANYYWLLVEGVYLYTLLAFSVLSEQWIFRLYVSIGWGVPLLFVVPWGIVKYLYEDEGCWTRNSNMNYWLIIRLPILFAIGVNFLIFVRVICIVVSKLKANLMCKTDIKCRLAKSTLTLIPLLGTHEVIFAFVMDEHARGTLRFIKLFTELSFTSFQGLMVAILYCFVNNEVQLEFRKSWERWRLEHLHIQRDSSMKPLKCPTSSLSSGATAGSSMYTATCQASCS
Assay: FACS cell binding

B1: GLP1R-242 (antibody)
heavy: QVQLVQSGAEVKKPGSSVKVSCKASGGTFSSYEISWVRQAPGQGLEWMGGIIPILGIANYAQKFQGRVTITADESTSTAYMELSSLRSEDTAVYYCAKHMSMQADTGTFTSDVSSYLEGQAAKEFIAWLVKGEFSSRADLVGDAFDVWGQGTLVTVSSASASTKGPSVFPLAPCSRSTSESTAALGCLVKDYFPEPVTVSWNSGALTSGVHTFPAVLQSSGLYSLSSVVTVPSSNFGTQTYTCNVDHKPSNTKVDKTVERKCCVECPPCPAPPVAGPSVFLFPPKPKDTLMISRTPEVTCVVVDVSHEDPEVQFNWYVDGVEVHNAKTKPREEQFNSTFRVVSVLTVVHQDWLNGKEYKCKVSNKGLPAPIEKTISKTKGQPREPQVYTLPPSREEMTKNQVSLTCLVKGFYPSDIAVEWESNGQPENNYKTTPPMLDSDGSFFLYSKLTVDKSRWQQGNVFSCSVMHEALHNHYTQKSLSLSPG
light: QSVLTQPPSVSAAPGQKVTISCSGSSSNIENNDVSWYQQLPGTAPKLLIYGNDQRPSGIPDRFSGSKSGTSATLGITGLQTGDEADYYCGTWDNTLSAGVFGGGTKLTVLGQPKAAPSVTLFPPSSEELQANKATLVCLISDFYPGAVTVAWKADSSPVKAGVETTTPSKQSNNKYAASSYLSLTPEQWKSHRSYSCQVTHEGSTVEKTVAPTECS
EC50: 27.7 nM
